Consider 15 molecules from US20120251571, “RNASE L-MEDIATED CLEAVAGE PRODUCTS AND USES […]” (The Cleveland Clinic Foundation, published 2012).

For data set [1], the target named is T1, Flag-RIG-I (Homo sapiens, UniProt O95786 O95786:1-925).
T1 sequence: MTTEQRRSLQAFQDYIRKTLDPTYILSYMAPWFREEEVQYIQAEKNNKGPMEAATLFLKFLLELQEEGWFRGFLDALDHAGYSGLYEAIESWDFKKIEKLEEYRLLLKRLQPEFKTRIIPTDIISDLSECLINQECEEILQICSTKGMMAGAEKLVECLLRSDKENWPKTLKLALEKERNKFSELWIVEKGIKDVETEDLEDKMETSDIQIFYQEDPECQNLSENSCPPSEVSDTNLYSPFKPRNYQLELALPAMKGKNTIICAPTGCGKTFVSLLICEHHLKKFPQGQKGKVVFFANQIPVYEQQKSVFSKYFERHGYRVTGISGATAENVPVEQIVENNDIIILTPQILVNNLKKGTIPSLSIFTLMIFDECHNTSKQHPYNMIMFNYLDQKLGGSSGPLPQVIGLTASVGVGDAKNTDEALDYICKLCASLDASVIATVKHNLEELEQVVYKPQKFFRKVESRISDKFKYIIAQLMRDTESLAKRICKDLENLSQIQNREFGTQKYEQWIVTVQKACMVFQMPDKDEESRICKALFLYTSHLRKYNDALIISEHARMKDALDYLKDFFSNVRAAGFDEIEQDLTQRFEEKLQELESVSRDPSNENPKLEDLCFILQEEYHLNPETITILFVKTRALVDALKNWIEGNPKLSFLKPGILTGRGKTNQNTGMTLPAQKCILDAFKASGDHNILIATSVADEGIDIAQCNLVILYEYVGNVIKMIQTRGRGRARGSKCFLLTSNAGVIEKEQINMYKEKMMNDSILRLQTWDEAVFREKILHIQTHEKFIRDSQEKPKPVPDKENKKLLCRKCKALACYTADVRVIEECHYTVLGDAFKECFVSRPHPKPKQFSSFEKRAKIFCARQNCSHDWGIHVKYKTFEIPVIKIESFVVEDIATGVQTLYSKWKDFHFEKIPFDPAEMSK
In words: pulldown; two clones. To be noted: tags: FLAG, from 293T cells.

Data set [2] addresses T2, RIG-I full-length (Homo sapiens, UniProt O95786 O95786:1-925).
T2 sequence: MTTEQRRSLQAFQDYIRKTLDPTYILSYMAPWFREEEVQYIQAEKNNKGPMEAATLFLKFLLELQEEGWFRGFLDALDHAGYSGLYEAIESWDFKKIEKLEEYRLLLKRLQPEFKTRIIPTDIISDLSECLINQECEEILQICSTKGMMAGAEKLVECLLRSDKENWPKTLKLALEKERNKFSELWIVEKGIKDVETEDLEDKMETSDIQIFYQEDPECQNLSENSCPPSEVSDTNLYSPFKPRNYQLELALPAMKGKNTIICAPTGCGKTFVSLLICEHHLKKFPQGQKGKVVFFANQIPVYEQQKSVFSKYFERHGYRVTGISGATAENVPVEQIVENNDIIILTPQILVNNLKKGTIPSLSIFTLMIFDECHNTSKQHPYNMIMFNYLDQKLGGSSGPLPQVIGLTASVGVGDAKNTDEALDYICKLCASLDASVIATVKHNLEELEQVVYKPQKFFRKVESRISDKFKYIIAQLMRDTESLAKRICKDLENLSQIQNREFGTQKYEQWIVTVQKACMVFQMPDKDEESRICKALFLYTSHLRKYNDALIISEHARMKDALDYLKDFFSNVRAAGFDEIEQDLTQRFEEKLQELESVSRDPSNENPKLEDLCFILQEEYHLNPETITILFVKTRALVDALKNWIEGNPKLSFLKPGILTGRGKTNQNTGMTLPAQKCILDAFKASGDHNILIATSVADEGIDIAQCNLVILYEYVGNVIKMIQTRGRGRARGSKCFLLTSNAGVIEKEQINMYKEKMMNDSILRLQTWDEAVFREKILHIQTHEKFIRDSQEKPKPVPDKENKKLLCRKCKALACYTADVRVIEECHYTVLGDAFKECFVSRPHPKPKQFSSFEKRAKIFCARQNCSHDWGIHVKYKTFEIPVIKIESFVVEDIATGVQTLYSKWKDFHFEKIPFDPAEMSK
In words: EMSA; stable complex; 1.5 mM MgCl2, 37 C. To be noted: tags: recombinant full-length (Saito et al. 2007, 2008); broken stem-loop with 5' and 3' ss overhangs. For orientation: A gel shift assay detects complexes by their altered migration in electrophoresis.

The target in data set [3] is T3, N-RIG (RIG-I N-terminal polypeptide) (UniProt O95786 O95786:1-228).
T3 sequence: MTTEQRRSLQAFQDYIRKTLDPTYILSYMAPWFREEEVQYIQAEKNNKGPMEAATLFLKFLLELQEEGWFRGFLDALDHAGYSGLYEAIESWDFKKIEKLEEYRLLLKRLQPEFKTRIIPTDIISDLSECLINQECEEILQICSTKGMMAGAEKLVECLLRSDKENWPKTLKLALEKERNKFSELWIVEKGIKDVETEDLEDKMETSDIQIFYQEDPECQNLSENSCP
In words: EMSA; N-terminal polypeptide control. To be noted: broken stem-loop with 5' and 3' ss overhangs.

The target in data set [4] is T1, Flag-RIG-I. Kind of data set: pulldown; eight clones. To be noted: tags: FLAG, from 293T cells; broken stem-loop with 5' and 3' ss overhangs.
Data set [5] deals with T1, Flag-RIG-I. In words: pulldown; six clones isolated; partial clones of the full fragment. To be noted: tags: FLAG, from 293T cells.
Data set [6] has as its target T1, Flag-RIG-I. In words: pulldown; one clone. To be noted: tags: FLAG, from 293T cells.
The target in data set [7] is T2, RIG-I full-length. Kind of data set: EMSA; stable complex; 10 pmol protein, 6 pmol RNA, 20 mM Tris pH 8.0, 1.5 mM MgCl2, 37 C. To be noted: tags: recombinant full-length (Saito et al. 2007, 2008); broken stem-loop with 5' and 3' ss overhangs.
The target of data set [8] is T1, Flag-RIG-I. Kind of data set: pulldown; three clones. To be noted: tags: FLAG, from 293T cells.

B1: svRNA12 (ssRNA)
RNA: UGCACCGCCAACCAUGACUCCCCUGACGCCGAGCUCAUAGAGGCUAACCUCCUGUGGAGGCAGGAGAUGGGCGGCAACAUCACCAGGGUUGAGUCAGAGAACAAAGUGGUGAUUCUGGACUCCUUCGAUCCGCUUGUGGCAGAGGAGGAUGAGCGGGAGGUCUCCGUACCUGCAGAAAUUCUGCGGAAGUCUCGGAGAUUCGCCCGGGCCCUGCCCGUCUGGGCGCGGCCGGACUACAACCCCCCGCUA
Regarding B1, the binding result in the data set with Flag-RIG-I [1] was “binds”.

B2: svRNA3 (5'-OH/3'-p) (ssRNA)
RNA: AAGAACAAAGCUCAAACUCACUCCAAUAGCGGCCGCUGGCCGGCUGGACUUGUCCGGUUGGUUCACGGCUGGCUACAGCGGGGGAGACAU
modifications: 5'-OH, 3'-phosphate
B2: the binding result with RIG-I full-length [2] is on record as “binds”; in data set [3] it was “no binding”; with Flag-RIG-I [4] it was “binds”.
Turning to UGUCCACCGGCCUCAUCCACCUCCACCAGAACAUU (ssRNA) [svRNA1], the binding result in the data set with Flag-RIG-I [5] is recorded as “binds”.

B3: svRNA13 (ssRNA)
RNA: CCACCUCCACGGUCCCCUCCUGUGCCUCCGCCUCGGAAAAAGCGUACGGUGGUCCUCACCGAAUCAACCCUA
For B3, the binding result with Flag-RIG-I [6] was “binds”.

B4: svRNA14 (ssRNA)
RNA: CCCGUGACCCUACAACCCCCCUCGCGAGAGCCGCGUGGGAGACAGCAAGACACACUCCAGUCAAUUCCUGGCUAGGCAACAU
Take B4: in the data set with Flag-RIG-I [6], the binding result was “binds”.

B5: svRNA15 (ssRNA)
RNA: CCCGUGACCCUACAACCCCCCUCGCGAGAGCCGCGUGGGAGACAGCAAGACACACUCCAGUCAAUUCCUGGCUAGGCAACAU
B5: the binding result with Flag-RIG-I [1] is given as “binds”.

B6: svRNA10 (ssRNA)
RNA: ACCUGGUCACGAGGCACGCCGAUGUCAUUCCCGUGCGCCGGCGAGGUGAUAGCAGGGGUAGCCUGCUUUCGCCCCGGCCCAUUUCCUACUUGAAAGGCUCCUCGGGGGGUCCGCUGUUGUGCCCCGCGGGACACGCCGUGGGCCUAUUCAGGGCCGCGGUGUGCACCCGUGGAGUGGCU
With B6, in the data set with Flag-RIG-I [6], the binding result is given as “binds”.

B7: svRNA7 (ssRNA)
RNA: GGUCUCCUUACACCAGGCGCCAAGCAGAACAUCCAACUGAUCAACACCAACGGCAGUUGGCACAUCAAUAGCACGGCCUUGAAUUGCAAUGAAAGCCUUAACACCGGCUGGUUAGCAGGGCUCUUCUAUCAACACAAAUUCAACUCUUCAGGCUGUCCUGAGAGGUUGGCCAGCUGCCGACGCCUUACCGAUUUUGCCCAGGGCUGGGGUCCUA
For the molecule B7, in the data set with Flag-RIG-I [1], the binding result is listed as “binds”.

B8: svRNA11 (ssRNA)
RNA: ACAGACUGGGCGCUGUUCAGAAUGAAGUCACCCUGACGCACCCAAUCACCAAAUACAUCAUGACAUGCAUGUCGGCCGACCUGGAGAUCGUCACGAGCACCUGGGUGCUCGUUGGCGGCGUCCUGGCUGCUCUGGCCGCGUAUUGCCUGUCAACAGGCUGCGUGGUCAUAGUGGGCAGGAUU
With B8, the binding result with Flag-RIG-I [6] is listed as “binds”.

B9: svRNA8 (ssRNA)
RNA: GCUUGGGCCAGCCGACGGAAUGGUCUCCAAGGGGUGGAGGUUGCUGGCGCCCAUCACGGCGUACGCCCAGCAGACGAGAGGCCUCCUAGGGUGUAUA
As to B9, the binding result with Flag-RIG-I [6] is “binds”.

B10: svRNA9 (ssRNA)
RNA: GCUUGGGCCAGCCGACGGAAUGGUCUCCAAGGGGUGGAGGUUGCUGGCGCCCAUCACGGCGUACGCCCAGCAGACGAGAGGCCUCCUAGGGUGUAUA
For B10, the binding result with Flag-RIG-I [6] was “binds”.

B11: svRNA6 (ssRNA)
RNA: ACGGGUCAUCGCAUGGCAUGGGAUAUGAUGAUGAACUGGUCCCCUACGGCAGCGUUGGUGGUAGCUCAGCUGCUCCGGAUCCCACAAGCCAUCAUGGACAUGAUCGCUGGUGCUCACUGGGGAGUCCUGGCGGGCAUAGCGU
Turning to B11, the binding result with Flag-RIG-I [1] is recorded as “binds”.

B12: svRNA3 (5'-p3/3'-OH) (ssRNA)
RNA: AAGAACAAAGCUCAAACUCACUCCAAUAGCGGCCGCUGGCCGGCUGGACUUGUCCGGUUGGUUCACGGCUGGCUACAGCGGGGGAGACAUUUA
modifications: 5'-triphosphate, 3'-OH
In the case of B12, the binding result was “no binding” in data set [3] and “binds” with RIG-I full-length [7].
UGUUGCUGCAACGCUGGGCUUUGGUGCUU (ssRNA) [svRNA2]: the binding result with Flag-RIG-I [8] is given as “binds”.
Consider ACCUUCUCUCCCAGGCGCCACUGGACGACGCAAGACUGCAAU (ssRNA) [svRNA5], for which, in the data set with Flag-RIG-I [6], the binding result was “binds”.
